Among the data in patent US20210145976A1 are HSA values, retold here.

The chains are these.
B1: SEQ ID NO 271 (designed binder)
chain: MLPAPKNLVVSRVTEDSARLSWTAPDAAFDSFYIPYAETRDDGEAIVLTVPGSERSYDLTGLKPGTEYSVLIHGVKGGDLSSPLSAIFTT
B2: SEQ ID NO 272 (designed binder)
chain: MLPAPKNLVVSRVTEDSARLSWTAPDAAFDSFGIPYAESTPTGEAIVLTVPGSERSYDLTGLKPGTEYSVLIHGVKGGHLSDPLSAIFTT
B3: SEQ ID NO 275 (designed binder)
chain: MLPAPKNLVVSRVTEDSARLSWTAPDAAFDSFLIAYAEVTLHGEAIVLTVPGSERSYDLTGLKPGTEYSVLIHGVKGGRNSDPLSAIFTT
B4: SEQ ID NO 269 (designed binder)
chain: MLPAPKNLVVSRVTEDSARLSWTAPDAAFDSFHINYAEVYTKGEAILLTVPGSERSYDLTGLKPGTEYEVYIPGVKGGPFSRPLNAQFTT
B5: SEQ ID NO 267 (designed binder)
chain: MLPAPKNLVVSRVTEDSARLSWTAPDAAFDSFPIVYSEIHVIGEAIVLTVPGSERSYDLTGLKPGTEYDVWIEGVKGGHLSEPLSAIFTT
B6: SEQ ID NO 268 (designed binder)
chain: MLPAPKNLVVSRVTEDSARLSWTAPDAAFDSFTIVYGEAGAFGEAIVLTVPGSERSYDLTGLKPGTEYDVLIEGVKGGNLSWPLSAIFTT
B7: SEQ ID NO 278 (designed binder)
chain: MLPAPKNLVVSRVTEDSARLSWTAPDAAFDSFPIAYAEPRPDGEAIVLTVPGSERSYDLTGLKPGTEYSVLIHGVKGGHLSDPLSAIFTT
B8: SEQ ID NO 265 (designed binder)
chain: MLPAPKNLVVSRVTEDSARLSWTAPDAAFDSFWIYYIETSHQGEAIVLTVPGSERSYDLTGLKPGTEYFVLIKGVKGGYDSVPLSAIFTT
B9: SEQ ID NO 276 (designed binder)
chain: MLPAPKNLVVSRVTEDSARLSWTAPDAAFDSFRIDYLELTSLGEAIVLTVPGSERSYDLTGLKPGTEYPVPILGVKGGLSSWPLSAIFTT
B10: SEQ ID NO 279 (designed binder)
chain: MLPAPKNLVVSRVTEDSARLSWTAPDAAFDSFSIEYYESVGLGEAIVLTVPGSERSYDLTGLKPGTEYDVSIYGVKGGYLSRPLSAIFTT
B11: SEQ ID NO 54 (designed binder)
chain: MLPAPKNLVVSRVTEDSARLSWTAPDAAFDSFQILYQENAFEGEAIVLTVPGSERSYDLTGLKPGTEYWVYIYGVKGGYPSVPLSAIFTT
B12: SEQ ID NO 266 (designed binder)
chain: MLPAPKNLVVSRVTEDSARLSWTAPDAAFDSFMIRYQEGTRWGEAIVLTVPGSERSYDLTGLKPGTEYIVMIAGVKGGQISLPLSAIFTT
B13: SEQ ID NO 274 (designed binder)
chain: MLPAPKNLVVSRVTEDSVRLSWTAPDAAFDSFAISYEEWWVHGEAIVLTVPGSERSYDLTGLKPGTEYSVVIPGVKGGLYSWTLSAISTT
B14: SEQ ID NO 277 (designed binder)
chain: MLPAPKNLVVSRVTEDSARLSWTAPDAAFDSFWINYYEGIGEGEAIVLTVPGSERSYDLTGLKPGTEYYVDISGVKGGSYSLPLSAIFTT
B15: SEQ ID NO 53 (designed binder)
chain: MLPAPKNLVVSRVTEDSARLSWTAPDAAFDSFFISYIEWWDLGEAIVLTVPGSERSYDLTGLKPGTEYHVEIFGVKGGTQSYPLSAIFTT

The target of the assay is human serum albumin (human) (UniProt P02768). Briefly: screening ELISA.
human serum albumin (human), sequence (P02768 25-609 limits assumed): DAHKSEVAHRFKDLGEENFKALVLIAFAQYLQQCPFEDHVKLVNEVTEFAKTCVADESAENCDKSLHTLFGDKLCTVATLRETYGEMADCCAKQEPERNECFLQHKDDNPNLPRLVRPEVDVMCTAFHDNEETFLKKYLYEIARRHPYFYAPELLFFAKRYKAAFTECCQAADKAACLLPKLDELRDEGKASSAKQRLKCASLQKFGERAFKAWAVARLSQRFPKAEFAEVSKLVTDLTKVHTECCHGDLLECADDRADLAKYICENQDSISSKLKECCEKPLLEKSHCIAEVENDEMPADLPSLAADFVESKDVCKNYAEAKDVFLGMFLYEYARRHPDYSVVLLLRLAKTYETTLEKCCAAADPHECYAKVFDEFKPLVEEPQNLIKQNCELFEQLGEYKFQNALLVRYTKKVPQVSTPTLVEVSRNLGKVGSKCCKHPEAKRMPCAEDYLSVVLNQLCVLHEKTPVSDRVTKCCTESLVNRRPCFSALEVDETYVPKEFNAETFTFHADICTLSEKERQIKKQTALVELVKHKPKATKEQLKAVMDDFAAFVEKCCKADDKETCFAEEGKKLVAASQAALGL
Turning to B1, the HSA came out at 3050.
The result for B2 reads 8950; that for B3, 3800; that for B4, 4150.
The result for B5 reads 11900.
As for B6, the figure is 2550.
B7 registered an HSA of 6500.
As for B8, the figure is 3950; as for B9, 12400.
B10 had an HSA of 3150.
As for B11, the figure is 6160; as for B12, 2650; as for B13, 11900.
As for B14, the figure is 5200.
As for B15, the figure is 9120.
